Laboratory results reported in patent publication US20260201045A1 (Regeneron, published 2026).
Substitutions are numbered along the chain they refer to.

What was measured:
[1] = molecular target: T1, human CNTFR extracellular domain (Q23-V105)/mCNTFR (G106-S342) expressed with a C-terminal … (human/mouse chimera, UniProt P26992 23-342); test: SPR Biacore S200, antigen captured by anti-myc, mAb injected, 25 C
T1 construct: Human/mouse chimeric CNTFR domain protein; also called hCNTFR (Q23-V105)/mCNTFR (G106-S342).mmh; hCNTFR (Q23-V105)_mCNTFR (G106-S342).mmh
T1 chain: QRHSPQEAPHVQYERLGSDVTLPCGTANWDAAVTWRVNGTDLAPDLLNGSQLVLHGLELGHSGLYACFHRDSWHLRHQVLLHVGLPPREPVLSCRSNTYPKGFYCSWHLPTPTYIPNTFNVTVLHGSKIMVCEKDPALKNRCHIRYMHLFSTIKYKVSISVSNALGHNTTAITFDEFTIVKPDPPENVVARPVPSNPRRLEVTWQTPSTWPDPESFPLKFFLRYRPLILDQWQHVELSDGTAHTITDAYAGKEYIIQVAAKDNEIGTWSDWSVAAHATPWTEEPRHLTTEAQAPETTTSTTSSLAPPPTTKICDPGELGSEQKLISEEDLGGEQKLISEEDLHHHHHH

[2] = molecular target: T2, full length mouse CNTFR (mCNTFR, amino acids 1-372, UniProtKB/Swiss-Prot Accession #088507) (mouse, UniProt O88507 23-342); test: flow cytometry on HEK293/mCNTFR cells
T2 construct: whole, on cells; also called HEK293/mCNTFR
T2 sequence (looked up): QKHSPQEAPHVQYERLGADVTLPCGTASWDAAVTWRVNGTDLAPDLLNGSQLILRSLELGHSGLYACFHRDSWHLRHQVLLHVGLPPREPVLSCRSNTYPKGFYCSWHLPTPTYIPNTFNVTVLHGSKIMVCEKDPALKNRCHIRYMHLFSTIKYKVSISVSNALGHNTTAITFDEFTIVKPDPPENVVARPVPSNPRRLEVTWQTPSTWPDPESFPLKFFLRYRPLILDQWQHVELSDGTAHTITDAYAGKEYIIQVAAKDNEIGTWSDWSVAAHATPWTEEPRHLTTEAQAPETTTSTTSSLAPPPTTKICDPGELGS
Description: (§1) To assess binding of the anti-CNTFR antibodies to CNTFR receptors expressed on the cell surface, each of the HEK293/CNTFR cells listed above or HEK293 parental cells were diluted to 5×10⁵ cells/well in 96-well v-bottom plates. […] Cells were fixed using BD CytoFix™ (Becton Dickinson, #554655), filtered, and then analyzed on IQuePlus® Flow Cytometer (Intellicyt®). Geometric Mean Fluorescent Intensity (MFI) values were calculated by Forecyt Software and plotted in GraphPad Prism using a 4-parameter logistic equation over the 8-point dose-response curve to obtain EC₅₀ values. […] The secondary only condition was excluded from the EC₅₀ calculation.

[3] = molecular target: T3, human CNTFR extracellular domain expressed with a C-terminal mouse IgG2a Fc tag (human); test: SPR Biacore 4000, mAb captured by anti-human Fc, antigen injected, 25 C
T3 construct: also called hCNTFR-mFc; dimeric hCNTFR-mFc
T3 chain: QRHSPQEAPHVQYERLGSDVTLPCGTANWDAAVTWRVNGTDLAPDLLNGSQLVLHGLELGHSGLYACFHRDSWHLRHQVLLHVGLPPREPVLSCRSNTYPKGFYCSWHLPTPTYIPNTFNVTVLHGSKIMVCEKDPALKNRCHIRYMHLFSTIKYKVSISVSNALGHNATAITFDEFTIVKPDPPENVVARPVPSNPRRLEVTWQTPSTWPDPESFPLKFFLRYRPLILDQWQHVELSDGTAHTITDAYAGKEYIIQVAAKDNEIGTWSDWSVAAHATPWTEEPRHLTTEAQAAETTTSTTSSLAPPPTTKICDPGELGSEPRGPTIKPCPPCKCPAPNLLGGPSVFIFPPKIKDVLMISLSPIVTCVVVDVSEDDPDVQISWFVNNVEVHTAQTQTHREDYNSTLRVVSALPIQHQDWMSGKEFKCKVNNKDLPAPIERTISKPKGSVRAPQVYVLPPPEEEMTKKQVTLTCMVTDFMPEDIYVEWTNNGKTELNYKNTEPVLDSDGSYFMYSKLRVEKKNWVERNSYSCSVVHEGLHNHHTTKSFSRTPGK
Description: (§2) Equilibrium dissociation constants (KD) for CNTFR binding to purified anti-CNTFR monoclonal antibodies were determined using a real-time surface plasmon resonance (SPR) based Biacore 4000 biosensor. All binding studies were performed in 10 mM HEPES, 150 mM NaCl, 3 mM EDTA, and 0.05% v/v surfactant Tween-20, pH 7.4 (HBS-ET) running buffer at 25° C. and 37° C. The Biacore CM4 sensor surface was first derivatized by amine coupling with a monoclonal mouse anti-human Fc antibody (REGN2567) to capture anti-CNTFR monoclonal antibodies. Different concentrations of CNTFR reagents, human CNTFR extracellular domain expressed with a C-terminal myc-myc-hexahistidine tag (hCNTFR-mmh; SEQ ID NO:42), monkey CNTFR extracellular domain expressed with a C-terminal myc-myc-hexahistidine tag (mfCNTFR-mmh; SEQ ID NO:43), mouse CNTFR extracellular domain expressed with a C-terminal myc-myc-hexahistidine tag (mCNTFR-mmh; SEQ ID NO:44), and human CNTFR extracellular domain expressed with a C-terminal mouse IgG2a Fc tag (hCNTFR-mFc; SEQ ID NO: 45), at concentrations ranging from 6.25 nM to 100 nM in a series of 4-fold dilutions prepared in HBS-ET running buffer were injected at a flow rate of 30 μL/min for 2.5 minutes. The dissociation of different CNTFR reagents bound to anti-CNTFR monoclonal antibodies was monitored for 10 minutes in HBS-ET running buffer. At the end of each cycle, the anti-CNTFR monoclonal antibodies capture surface was regenerated using a 12 sec injection of 20 mM H3PO4. The association rate (ka) and dissociation rate (kd) were determined by fitting the real-time specific binding sensorgrams to a 1:1 binding model with mass transport limitation using Scrubber 2.0c curve-fitting software. Binding dissociation equilibrium constant (KD) and dissociative half-life (t½) were calculated from the kinetic rates as: […]

[4] = molecular target: T4, mouse CNTFR extracellular domain expressed with a C-terminal myc-myc-hexahistidine tag (mouse, UniProt O88507 23-342); test: as above
T4 construct: The entry holds the tag as well; also called mCNTFR-mmh
Description: as §2

[5] = molecular target: T3, human CNTFR extracellular domain …; test: SPR Biacore 4000, mAb captured by anti-human Fc, antigen injected, 37 C
Description: as §2

[6] = molecular target: T5, full length human CNTFR (hCNTFR, amino acids 1-372, UniProtKB/Swiss-Prot Accession #P26992) (human, UniProt P26992 23-342); test: flow cytometry on HEK293/hCNTFR cells
T5 construct: also called HEK293/hCNTFR; CNTFR endogenously expressed on IMR-32/STAT3-luc cells
T5 sequence: T2 sequence (looked up) with K2R, A18S, S28N, I53V, R55H, S56G, T169A, P294A
Description: as §1

[7] = molecular target: T6, human CNTFR extracellular domain (Q23-D205)/mCNTFR (P206-S342) expressed with a C-terminal … (human/mouse chimera, UniProt P26992 23-342); test: SPR Biacore S200, antigen captured by anti-myc, 100 nM mAb injected, 25 C
T6 construct: Human/mouse chimeric CNTFR domain protein; also called hCNTFR (Q23-D205)/mCNTFR (P206-S342).mmh; hCNTFR (Q23-D205)_mCNTFR(P206-S342).mmh

[8] = molecular target: T7, human CNTFR extracellular domain expressed with a C-terminal myc-myc-hexahistidine tag (human, UniProt P26992 23-342); test: as above
T7 construct: The entry holds the tag as well; also called hCNTFR-mmh; hCNTFR.mmh

[9] = molecular target: T1, human CNTFR extracellular domain …; test: as above

binding result [1]: no binding (tested: 100 nM)
binding result [2]: no binding (tested: 375 nM)
Kd [3]: 7.22 nM
koff [3]: 0.000125 s⁻¹
kon [3]: 17300 M⁻¹ s⁻¹
t½ [3]: 93 min
binding result [4]: no binding (tested: 100 nM)
Kd [5]: 27.2 nM
koff [5]: 0.000784 s⁻¹
kon [5]: 28800 M⁻¹ s⁻¹
t½ [5]: 15 min
EC50 [6]: 4.33 nM
Max. Fold Binding [6]: 510 fold over secondary antibody alone
100 nM mAb Bound (RU) [7]: 89 RU
100 nM mAb Bound (RU) [8]: 80 RU
100 nM mAb Bound (RU) [9]: 1 RU
B1: mAb25311P2 (antibody, human IgG4 S228P, kappa, V domains shown)
VH: QVQLVESGGGVVQPGRSLRLSCVASGFTFSTSVMHWVRQAPGKGLEWVANIWYDGINKFYVDSVKGRFTISRDNSKNTLYLQMNSLRAEDTAVYYCAREFWSAFDLWGQGTMVTVSS
VL: not shown
